Source: patent publication US20230220057A1 (STAIDSON BEIJING BIOPHARMACEUTICALS, published 2023)

B1: Ab25 (antibody, human IgG1, V domains shown)
VH: EVQLVQSGAEVKKPGATVKISCKVSGYSFITYWISWVQQAPGKGLEWMGAIDPSDSDARYSPSFQGRVTITADKSTDTAYMELSSLRSEDTAVYYCAKSDPGYSGYSLLYGFDSWGQGTLVTVSS
VL: DVVMTQSPLSLPVTLGQPASISCRSSQSLVQRNGNTYLSWYQQRPGQPPRLLIYQVSNRYSGVPDRFSGSGSGTDFTLKISRVEAEDVGVYYCGQGAHLPLTFGQGTKVEIK
B2: Ab26 (antibody, human IgG1, V domains shown)
VH: EVQLVQSGAEVKKPGATVKISCKVSGYSFITYWISWVQQAPGKGLEWMGAIDPSDSDARYSPSFQGRVTITADKSTDTAYMELSSLRSEDTAVYYCAKSDPGYSGYSLLYGFDSWGQGTLVTVSS
VL: DVVMTQSPLSLPVTLGQPASISCRSSQSLVQRNGNTYLSWFQQRPGQPPRLLIYQVSNRYSGVPDRFSGSGSGTDFTLKISRVEAEDVGVYYCGQGAHLPLTFGQGTKVEIK
B3: Ab27 (antibody, human IgG1, V domains shown)
VH: EVQLVQSGAEVKKPGATVKISCKVSGYSFITYWISWVQQAPGKGLEWMGAIDPSDSDARYSPSFQGRVTITADKSTDTAYMELSSLRSEDTAVYYCAKSDPGYSGYSLLYGFDSWGQGTLVTVSS
VL: DIVMTQSPLSLPVTLGQPASISCRSSQSLVQRNGNTYLSWFQQRPGQSPRLLIYQVSNRYSGVPDRFSGSGSGTDFTLKISRVEAEDVGVYYCGQGAHLPLTFGQGTKVEIK
B4: Ab28 (antibody, human IgG1, V domains shown)
VH: EVQLVQSGAEVKKPGATVKISCKVSGYSFITYWISWVQQAPGKGLEWMGAIDPSDSDARYSPSFQGRVTITADKSTDTAYMELSSLRSEDTAVYYCAKSDPGYSGYSLLYGFDSWGQGTLVTVSS
VL: DIVMTQSPLSLPVTLGQPASISCRSSQSLVQRNGNTYLSWYQQRPGQSPRLLIYQVSNRYSGVPDRFSGSGSGTDFTLKISRVEAEDVGVYYCGQGAHLPLTFGQGTKVEIK
B5: Ab29 (antibody, human IgG1, V domains shown)
VH: EVQLVQSGAEVKKPGATVKISCKVSGYSFITYWISWVQQAPGKGLEWMGAIDPSDSDARYSPSFQGRVTITADKSTDTAYMELSSLRSEDTAVYYCAKSDPGYSGYSLLYGFDSWGQGTLVTVSS
VL: DIVMTQSPLSLPVTLGQPASISCRSSQSLVQRNGNTYLSWYQQRPGQPPRLLIYQVSNRYSGVPDRFSGSGSGTDFTLKISRVEAEDVGVYYCGQGAHLPLTFGQGTKVEIK
B6: Ab30 (antibody, human IgG1, V domains shown)
VH: EVQLVQSGAEVKKPGATVKISCKVSGYSFITYWISWVQQAPGKGLEWMGAIDPSDSDARYSPSFQGRVTITADKSTDTAYMELSSLRSEDTAVYYCAKSDPGYSGYSLLYGFDSWGQGTLVTVSS
VL: DIVMTQSPLSLPVTLGQPASISCRSSQSLVQRNGNTYLSWFQQRPGQPPRLLIYQVSNRYSGVPDRFSGSGSGTDFTLKISRVEAEDVGVYYCGQGAHLPLTFGQGTKVEIK
B7: Ab31 (antibody, human IgG1, V domains shown)
VH: EVQLVQSGAEVKKPGATVKISCKVSGYTFITYWISWVQQAPGKGLEWMGAIDPSDSDARYSPSFQGRVTITADKSTDTAYMELSSLRSEDTAVYYCAKSDPGYSGYSLLYGFDSWGQGTLVTVSS
VL: DIVMTQTPLSSPVTLGQPASISCRSSQSLVQRNGNTYLSWLQQRPGQPPRLLIYQVSNRYSGVPDRFSGSGAGTDFTLKISRVEAEDVGVYYCGQGAHLPLTFGQGTKVEIK
B8: Ab32 (antibody, human IgG1, V domains shown)
VH: EVQLVQSGAEVKKPGATVKISCKVSGYTFITYWISWVQQAPGKGLEWMGAIDPSDSDARYSPSFQGRVTITADKSTDTAYMELSSLRSEDTAVYYCAKSDPGYSGYSLLYGFDSWGQGTLVTVSS
VL: DIVMTQTPLSSPVTLGQPASISCRSSQSLVQRNGNTYLSWYQQRPGQPPRLLIYQVSNRYSGVPDRFSGSGAGTDFTLKISRVEAEDVGVYYCGQGAHLPLTFGQGTKVEIK
B9: Ab33 (antibody, human IgG1, V domains shown)
VH: EVQLVQSGAEVKKPGATVKISCKVSGYTFITYWISWVQQAPGKGLEWMGAIDPSDSDARYSPSFQGRVTITADKSTDTAYMELSSLRSEDTAVYYCAKSDPGYSGYSLLYGFDSWGQGTLVTVSS
VL: DVVMTQSPLSLPVTLGQPASISCRSSQSLVQRNGNTYLSWFQQRPGQSPRLLIYQVSNRYSGVPDRFSGSGSGTDFTLKISRVEAEDVGVYYCGQGAHLPLTFGQGTKVEIK
B10: Ab34 (antibody, human IgG1, V domains shown)
VH: EVQLVQSGAEVKKPGATVKISCKVSGYTFITYWISWVQQAPGKGLEWMGAIDPSDSDARYSPSFQGRVTITADKSTDTAYMELSSLRSEDTAVYYCAKSDPGYSGYSLLYGFDSWGQGTLVTVSS
VL: DVVMTQSPLSLPVTLGQPASISCRSSQSLVQRNGNTYLSWYQQRPGQSPRLLIYQVSNRYSGVPDRFSGSGSGTDFTLKISRVEAEDVGVYYCGQGAHLPLTFGQGTKVEIK
B11: Ab35 (antibody, human IgG1, V domains shown)
VH: EVQLVQSGAEVKKPGATVKISCKVSGYTFITYWISWVQQAPGKGLEWMGAIDPSDSDARYSPSFQGRVTITADKSTDTAYMELSSLRSEDTAVYYCAKSDPGYSGYSLLYGFDSWGQGTLVTVSS
VL: DVVMTQSPLSLPVTLGQPASISCRSSQSLVQRNGNTYLSWYQQRPGQPPRLLIYQVSNRYSGVPDRFSGSGSGTDFTLKISRVEAEDVGVYYCGQGAHLPLTFGQGTKVEIK
B12: Ab38 (antibody, human IgG1, V domains shown)
VH: EVQLVQSGAEVKKPGATVKISCKVSGYTFITYWISWVQQAPGKGLEWMGAIDPSDSDARYSPSFQGRVTITADKSTDTAYMELSSLRSEDTAVYYCAKSDPGYSGYSLLYGFDSWGQGTLVTVSS
VL: DIVMTQSPLSLPVTLGQPASISCRSSQSLVQRNGNTYLSWYQQRPGQSPRLLIYQVSNRYSGVPDRFSGSGSGTDFTLKISRVEAEDVGVYYCGQGAHLPLTFGQGTKVEIK
B13: Ab39 (antibody, human IgG1, V domains shown)
VH: EVQLVQSGAEVKKPGATVKISCKVSGYTFITYWISWVQQAPGKGLEWMGAIDPSDSDARYSPSFQGRVTITADKSTDTAYMELSSLRSEDTAVYYCAKSDPGYSGYSLLYGFDSWGQGTLVTVSS
VL: DIVMTQSPLSLPVTLGQPASISCRSSQSLVQRNGNTYLSWYQQRPGQPPRLLIYQVSNRYSGVPDRFSGSGSGTDFTLKISRVEAEDVGVYYCGQGAHLPLTFGQGTKVEIK
B14: Ab40 (antibody, human IgG1, V domains shown)
VH: EVQLVQSGAEVKKPGATVKISCKVSGYTFITYWISWVQQAPGKGLEWMGAIDPSDSDARYSPSFQGRVTITADKSTDTAYMELSSLRSEDTAVYYCAKSDPGYSGYSLLYGFDSWGQGTLVTVSS
VL: DIVMTQSPLSLPVTLGQPASISCRSSQSLVQRNGNTYLSWFQQRPGQPPRLLIYQVSNRYSGVPDRFSGSGSGTDFTLKISRVEAEDVGVYYCGQGAHLPLTFGQGTKVEIK
B15: Ab41 (antibody, human IgG1, V domains shown)
VH: EVQLVQSGAEVKKPGESLKISCKGSGYSFITYWISWVRQMPGKGLEWMGAIDPSDSDARYSPSFQGQVTISADKSISTAYLQWSSLKASDTAMYYCAKSDPGYSGYSLLYGFDSWGQGTLVTVSS
VL: DIVMTQTPLSSPVTLGQPASISCRSSQSLVQRNGNTYLSWLQQRPGQPPRLLIYQVSNRYSGVPDRFSGSGAGTDFTLKISRVEAEDVGVYYCGQGAHLPLTFGQGTKVEIK
B16: Ab43 (antibody, human IgG1, V domains shown)
VH: EVQLVQSGAEVKKPGESLKISCKGSGYSFITYWISWVRQMPGKGLEWMGAIDPSDSDARYSPSFQGQVTISADKSISTAYLQWSSLKASDTAMYYCAKSDPGYSGYSLLYGFDSWGQGTLVTVSS
VL: DVVMTQSPLSLPVTLGQPASISCRSSQSLVQRNGNTYLSWFQQRPGQSPRLLIYQVSNRYSGVPDRFSGSGSGTDFTLKISRVEAEDVGVYYCGQGAHLPLTFGQGTKVEIK
B17: Ab50 (antibody, human IgG1, V domains shown)
VH: EVQLVQSGAEVKKPGESLKISCKGSGYSFITYWISWVRQMPGKGLEWMGAIDPSDSDARYSPSFQGQVTISADKSISTAYLQWSSLKASDTAMYYCAKSDPGYSGYSLLYGFDSWGQGTLVTVSS
VL: DIVMTQSPLSLPVTLGQPASISCRSSQSLVQRNGNTYLSWFQQRPGQPPRLLIYQVSNRYSGVPDRFSGSGSGTDFTLKISRVEAEDVGVYYCGQGAHLPLTFGQGTKVEIK
B18: Ab51 (antibody, human IgG1, V domains shown)
VH: EVQLVQSGAEVKKPGESLKISCKISGYSFITYWISWVRQMPGKGLEWMGAIDPSDSDARYSPSFQGQVTISADKSISTAYLQWSSLKASDTAMYYCAKSDPGYSGYSLLYGFDSWGQGTLVTVSS
VL: DIVMTQTPLSSPVTLGQPASISCRSSQSLVQRNGNTYLSWLQQRPGQPPRLLIYQVSNRYSGVPDRFSGSGAGTDFTLKISRVEAEDVGVYYCGQGAHLPLTFGQGTKVEIK
B19: Ab53 (antibody, human IgG1, V domains shown)
VH: EVQLVQSGAEVKKPGESLKISCKISGYSFITYWISWVRQMPGKGLEWMGAIDPSDSDARYSPSFQGQVTISADKSISTAYLQWSSLKASDTAMYYCAKSDPGYSGYSLLYGFDSWGQGTLVTVSS
VL: DVVMTQSPLSLPVTLGQPASISCRSSQSLVQRNGNTYLSWFQQRPGQSPRLLIYQVSNRYSGVPDRFSGSGSGTDFTLKISRVEAEDVGVYYCGQGAHLPLTFGQGTKVEIK

molecular target: recombinantly produced human-NGF (human, UniProt P01138 122-241, limits assumed); experiment: ELISA, human NGF coated, IgG titrated
Sequence (P01138 122-241 limits assumed): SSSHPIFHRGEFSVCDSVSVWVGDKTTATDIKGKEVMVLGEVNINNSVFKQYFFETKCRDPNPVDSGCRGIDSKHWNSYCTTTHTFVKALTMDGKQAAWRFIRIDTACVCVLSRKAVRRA
Experimental: NGF binding ELISA assay: In human NGF binding ELISA, Corning 3366 high binding 96 well plates were coated with recombinantly produced human-NGF at 1 μg per ml, 50 μl/well in 1×PBS, and incubated overnight at 4° C. The plates were washed and blocked with 250 μl of 1×PBS/1% BSA at least 30 minutes at room temperature. 50 μl of culture supernatants, after 1:1 diluted by the PBS/BSA diluent, or the purified antibodies diluted serially from a certain concentration with the diluent, were added per well, and incubated at 37° C. for 2 hours. After washing, a secondary antibody, goat anti-human IgG Fc AP (Southern biotech) was applied at a dilution of 1:3000 in PBS/BSA. The plates were incubated for 1 hour at RT and washed. After adding the PNPP substrate, the ODs at 405 nm were read.
NGF binding ELISA assay: NGF binding ELISA assay was performed as described in Example 1.

| EC50 [ng/mL] | Binder |
| --- | --- |
| 0.0331 | B1 |
| 0.0234 | B2 |
| 0.0206 | B3 |
| 0.0331 | B4 |
| 0.0292 | B5 |
| 0.0254 | B6 |
| 0.0502 | B7 |
| 0.0403 | B8 |
| 0.0342 | B9 |
| 0.11 | B10 |
| 0.0308 | B11 |
| 0.0252 | B12 |
| 0.0208 | B13 |
| 0.0172 | B14 |
| 0.0192 | B15 |
| 0.0221 | B16 |
| 0.00629 | B17 |
| 0.0221 | B18 |
| 0.0482 | B19 |
